Earlier results on 1 substance are cited in article PMC4150018.

This data set addresses thrombin (Bos taurus) (UniProt P00735).
Sequence of UniProt P00735 (P00735 318-366): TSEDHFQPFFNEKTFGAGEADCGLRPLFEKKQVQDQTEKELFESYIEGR

As usually defined, the Ki is the dissociation constant of the complex between target and ligand, obtained from inhibition or displacement. In the case of “rhodniin (Kazal-type thrombin inhibitor) (from UniProt Q06684)”, the Ki was 0.2 pM.
